± gives the standard deviation of the averaged measurements.

This series has as its system ATP. The series is described as follows: switch fluorescence ratio, 500 uM ATP over buffer (Cy3 cluster intensity, sum of 5 cycles each) (fold (ratio)); higher = stronger signal-on switching upon ATP binding; sequences stand for … in TCGTCGGCAGCGTCAGATGTGTATAAGAGACAGTTTTTTTTTTTTTTTTTTTTTTTTT…TC. As to conditions: aptamer strand: ATP DNA aptamer (quencher-CACCTGGGGGAGTATTGCGGAGGAAGG + anchor), 100 nM annealed; ATP concentration: 500 uM. The procedure, abridged:
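Exposure to 500 uM ATP lasted 15 min at 22 °C before imaging, and a selection-buffer image was taken beforehand, for Cy3-labelled switching-strand clusters on a modified Illumina MiSeq flow-cell annealed to 100 nM quencher-labelled ATP aptamer. Five buffer/ATP cycles were run with NaOH stripping and re-annealing between them. The fluorescence ratio per cluster is summed target-cycle over summed buffer-cycle Cy3 intensity, averaged per switch-domain sequence. Clusters outside 100-1000 RFU were excluded.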

Consider GGGTCTTTTC, for which the switch fluorescence ratio is 1.11 ± 0.11.
To TCGTTTTGCG belongs 0.9977 ± 0.0086; to AAGGTTAGGG, 0.984 ± 0.029; to CACATAGACG, 1.03 ± 0.046.
In the case of TTCGTTTTGT, the switch fluorescence ratio stood at 0.9975 ± 0.0097.
As for AACTTTATCC, the figure is 1.09 ± 0.042.
To CACTCGCCCG belongs 1.11 ± 0.042.
As for TAAATCCTTT, the figure is 1 ± 0.053; as for GCGTTAACTC, 1.08 ± 0.026.
Regarding AGGGCAGTAT, the switch fluorescence ratio was found to be 1.06 ± 0.11.
As for ATCAGTTTTC, the switch fluorescence ratio was found to be 0.985 ± 0.0013.
As to TTGTGGATTA, the switch fluorescence ratio came out at 1 ± 0.027.
To GTGAAAGGGG belongs 1.11 ± 0.17.
Take TGACGAGCGA: the switch fluorescence ratio was 2.25 ± 0.24.
To GTTTTAGGGT belongs 1 ± 0.031.
For the sequence CGTTGGGAGC, the switch fluorescence ratio amounted to 1 ± 0.019.
As to CGGGGTGCCT, the switch fluorescence ratio came out at 0.999 ± 0.024.
To TTTATCATAA belongs 0.958 ± 0.017; to TGTATATAGC, 1 ± 0.021.
To AGGTTGTTAG belongs 1.01 ± 0.019; to GGACATGGAC, 0.9775 ± 0.0044; to GGCGAAAGAG, 1.02 ± 0.049.
Take AGTGGAAGGG: the switch fluorescence ratio was determined as 0.957 ± 0.027.
For GGGGCTATCG, the switch fluorescence ratio is 1.16 ± 0.24.
To GCCGTCAGTT belongs 0.9899 ± 0.0048.
For the sequence ATGTGTAACC, the switch fluorescence ratio is 1 ± 0.039.
As for TAAAAGGGCT, the figure is 0.999 ± 0.011; as for CGTGCGGGGT, 0.991 ± 0.028.
As for TCAGGGGTTA, the figure is 1.03 ± 0.031; as for AACATTCGTT, 1.034 ± 0.0042; as for TTTTGTTGGG, 0.991 ± 0.03.
On to AGGATACATT, for which the switch fluorescence ratio was determined as 1.02 ± 0.02.
To GTTGACTTAA belongs 1.02 ± 0.013; to GTAAAGGGGA, 1.03 ± 0.044.
ATTTTTCGGC: the switch fluorescence ratio came out at 0.99 ± 0.02.
GGGATCTACA: the switch fluorescence ratio was 1.03 ± 0.024.
As for TTTGGGGTAA, the switch fluorescence ratio amounted to 0.991 ± 0.029.
As for ACAATAACAC, the figure is 1.095 ± 0.0093.
TGCAGCATCT: the switch fluorescence ratio worked out at 1.13 ± 0.032.
TTAGGATTTT: the switch fluorescence ratio was found to be 1.01 ± 0.011.
As for AAGTAGATTG, the figure is 1.003 ± 0.0081; as for GATTAACGGT, 1.012 ± 0.0084; as for CATGGCCAGG, 1.06 ± 0.079.
With ATATTTTGGC, the switch fluorescence ratio is 1.04 ± 0.034.
To TTCGTTTTTT belongs 0.985 ± 0.047.
As to CTGGACTTAC, the switch fluorescence ratio turned out to be 1.34 ± 0.052.
As for GCGTATAGGA, the figure is 1.01 ± 0.035.
As for TACTCGGGCT, the figure is 1.017 ± 0.0044.
Consider AGGTGCTTGG, for which the switch fluorescence ratio amounted to 0.997 ± 0.026.
As for GGGTGGGTGT, the figure is 1.05 ± 0.057; as for AGGAGAGGGT, 0.967 ± 0.013.
As for AAGGGCCGTG, the figure is 1.02 ± 0.04; as for ATAATAGAAT, 0.993 ± 0.025; as for AAAGAGCGCC, 0.947 ± 0.03.
As to ATCTTGGACG, the switch fluorescence ratio was 1.05 ± 0.027.
To TTTATCCGTC belongs 0.96 ± 0.033.
In the case of CAATTGTACG, the switch fluorescence ratio was found to be 1 ± 0.011.
Consider ATTTTGGAGA, for which the switch fluorescence ratio was determined as 1.02 ± 0.026.
As for CAGCTTATCG, the figure is 0.995 ± 0.014; as for CGGTGTGTGG, 0.999 ± 0.032; as for AAACCAGTG, 1.175 ± 0.0088.
As for TAAGGAATGC, the switch fluorescence ratio was determined as 1.54 ± 0.035.
As for CCTTGGGCTT, the figure is 1.04 ± 0.031.
As for GAGGATGGGA, the figure is 0.98 ± 0.022; as for ACAGCAGGGG, 1.25 ± 0.17; as for TTCCGGGGGG, 1.02 ± 0.054.
Turning to AGAACAAACC, the switch fluorescence ratio amounted to 1.08 ± 0.018.
With GTTGGCACGA, the switch fluorescence ratio amounted to 1.04 ± 0.018.
Regarding CAGCTTGGGT, the switch fluorescence ratio turned out to be 0.999 ± 0.04.
Regarding TGACATTCGA, the switch fluorescence ratio turned out to be 1.0321 ± 0.00051.
To TCGAAGGGT belongs 1 ± 0.037; to ATATATAAAT, 0.978 ± 0.033; to GTACGAACTT, 1.32 ± 0.061.
With CTAAAGATCG, the switch fluorescence ratio worked out at 1.03 ± 0.049.
With AGATTAAAGA, the switch fluorescence ratio was determined as 1.006 ± 0.009.
To AAGAGGTAGT belongs 1.02 ± 0.015; to GGAGAAGGCG, 0.994 ± 0.053.
To GGACATGGGT belongs 1 ± 0.019.
For GGATTAAGGG, the switch fluorescence ratio was determined as 0.993 ± 0.024.
As for TTTGTGAGAA, the switch fluorescence ratio was 1.02 ± 0.0045.
To GGGAGAATTA belongs 1.037 ± 0.0022; to GTAAGTAAGA, 1.03 ± 0.017.
In the case of TTGGTAGATT, the switch fluorescence ratio turned out to be 0.984 ± 0.047.
To GATTTTCCTA belongs 0.9608 ± 0.0014.
As for TGACGGATGC, the figure is 1.197 ± 0.01; as for TTCTGTAGCG, 1.06 ± 0.13.
Consider TATTAGAACT, for which the switch fluorescence ratio is 1.017 ± 0.0064.
In the case of TAAAGAATTT, the switch fluorescence ratio was found to be 0.98 ± 0.032.
For the sequence TTAAGTATTT, the switch fluorescence ratio came to 0.997 ± 0.055.
As to TTGTAGCACG, the switch fluorescence ratio worked out at 1.07 ± 0.037.
To AAAATTGAAA belongs 0.988 ± 0.073; to GATGAGCCGG, 1 ± 0.027; to GGCGCTCACA, 1.04 ± 0.028.
On to TAGTCGTCGT, for which the switch fluorescence ratio turned out to be 1.02 ± 0.0021.
To TCTTTGATGA belongs 0.983 ± 0.051.
Regarding GTTTTTAGGC, the switch fluorescence ratio is 1.02 ± 0.094.
As for ACTTTTCGGT, the figure is 1 ± 0.015; as for GGGGTATGGG, 0.985 ± 0.038; as for TTTTATAGTG, 0.984 ± 0.033.
Take ATATGGATAC: the switch fluorescence ratio amounted to 1.05 ± 0.045.
To GATGCTCGAG belongs 1 ± 0.016; to TTGCAGATTT, 0.985 ± 0.028.
As for ACGTAATGTC, the figure is 1.25 ± 0.12; as for TTAATATTCT, 0.969 ± 0.065; as for TTCGTCATGG, 1.027 ± 0.0075.
In the case of CGCCAACAAC, the switch fluorescence ratio was 1.78 ± 0.036.
Consider TACGGGGG, for which the switch fluorescence ratio is 1.01 ± 0.071.
As for GGAGCACGTG, the figure is 1.12 ± 0.058; as for ATTGGCGTGG, 1.01 ± 0.019.
Regarding ACGATCGGGC, the switch fluorescence ratio turned out to be 1.06 ± 0.05.
As for ATTCATTGC, the figure is 1.038 ± 0.0048.
As for CAAGGACAGC, the figure is 1.05 ± 0.047.
For the sequence CAGCTGGTAT, the switch fluorescence ratio is 0.9992 ± 0.0011.
As for AGGATCTATG, the figure is 1.03 ± 0.021; as for AATGGTGCGA, 0.975 ± 0.012.
To TTGAAGGCTT belongs 0.997 ± 0.013; to GGGTTATCGG, 0.967 ± 0.041.
To ATTATCAGTT belongs 0.987 ± 0.021; to CGGGTGGGAA, 0.9995 ± 0.0026.
With GGAATGGTTT, the switch fluorescence ratio turned out to be 0.987 ± 0.064.

Values taken from the supplement of paper PMC10126150.
